Residue numbers refer to the chain shown, from its start. In names and notes the source's numbering stands.

This test deals with T1, TNFR1 (Homo sapiens, UniProt P19438).
T1 chain: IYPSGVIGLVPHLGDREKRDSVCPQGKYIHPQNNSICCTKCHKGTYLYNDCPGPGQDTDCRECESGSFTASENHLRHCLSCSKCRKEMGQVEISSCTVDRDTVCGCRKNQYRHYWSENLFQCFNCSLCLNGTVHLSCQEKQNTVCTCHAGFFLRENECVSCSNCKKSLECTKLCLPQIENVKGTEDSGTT
Nature of the test: yeast display SC50.

B1: A106T (designed binder)
chain: SMEEEVEKAAKEYEKKKKEAIEKHLEKLKAKDKEAAERFLKELEEAAKEYAKDEAKTMSEEEAKRRAKKYKEKVLLSELSEEEQKEIKEAEEKLVRTILKYVEEATK
In the case of B1, the “apparent Kd (screen)” value was 1.54 nM.

B2: A106P (designed binder)
chain: B1 chain with T106P
B2: the “apparent Kd (screen)” value is 0.653 nM.

B3: A10N (designed binder)
chain: B1 chain with A10N, T106A
For the molecule B3, the “apparent Kd (screen)” value stood at 2.48 nM.

B4: A30T (designed binder)
chain: B1 chain with A30T, T106A
On to B4, for which the “apparent Kd (screen)” value amounted to 1.16 nM.

B5: R66A (designed binder)
chain: B1 chain with R66A, T106A
Take B5: the “apparent Kd (screen)” value came to 20.2 nM.

B6: E72I (designed binder)
chain: B1 chain with E72I, T106A
With B6, the “apparent Kd (screen)” value is 0.718 nM.

B7: H24I (designed binder)
chain: B1 chain with H24I, T106A
For B7, the “apparent Kd (screen)” value was 2.73 nM.

B8: E103A (designed binder)
chain: B1 chain with E103A, T106A
Turning to B8, the “apparent Kd (screen)” value was determined as 0.446 nM.

B9: M2Y (designed binder)
chain: B1 chain with M2Y, T106A
On to B9, for which the “apparent Kd (screen)” value was found to be 0.49 nM.

B10: K23C (designed binder)
chain: B1 chain with K23C, T106A
In the case of B10, the “apparent Kd (screen)” value came out at 0.49 nM.

B11: R65Q (designed binder)
chain: B1 chain with R65Q, T106A
B11: the “apparent Kd (screen)” value was found to be 0.304 nM.

B12: A55Q (designed binder)
chain: B1 chain with A55Q, T106A
B12: the “apparent Kd (screen)” value stood at 1.54 nM.

B13: E92Q (designed binder)
chain: B1 chain with E92Q, T106A
B13: the “apparent Kd (screen)” value came to 6.43 nM.

B14: M2D (designed binder)
chain: B1 chain with M2D, T106A
Consider B14, for which the “apparent Kd (screen)” value came out at 0.446 nM.

B15: K69T (designed binder)
chain: B1 chain with K69T, T106A
With B15, the “apparent Kd (screen)” value amounted to 2.05 nM.

B16: K33G (designed binder)
chain: B1 chain with K33G, T106A
On to B16, for which the “apparent Kd (screen)” value came to 1.16 nM.

B17: I21Q (designed binder)
chain: B1 chain with I21Q, T106A
Take B17: the “apparent Kd (screen)” value was 0.49 nM.

B18: A106R (designed binder)
chain: B1 chain with T106R
With B18, the “apparent Kd (screen)” value stood at 3 nM.

B19: K56F (designed binder)
chain: B1 chain with K56F, T106A
With B19, the “apparent Kd (screen)” value was 3.63 nM.

B20: I21K (designed binder)
chain: B1 chain with I21K, T106A
As to B20, the “apparent Kd (screen)” value worked out at 0.446 nM.

B21: K52Y (designed binder)
chain: B1 chain with K52Y, T106A
For B21, the “apparent Kd (screen)” value came out at 2.48 nM.

B22: E104K (designed binder)
chain: B1 chain with E104K, T106A
With B22, the “apparent Kd (screen)” value was determined as 0.446 nM.

B23: E86F (designed binder)
chain: B1 chain with E86F, T106A
B23: the “apparent Kd (screen)” value came to 1.86 nM.

B24: L43Y (designed binder)
chain: B1 chain with L43Y, T106A
Turning to B24, the “apparent Kd (screen)” value stood at 5.84 nM.

B25: E49G (designed binder)
chain: B1 chain with E49G, T106A
In the case of B25, the “apparent Kd (screen)” value came to 9.41 nM.

B26: R96G (designed binder)
chain: B1 chain with R96G, T106A
With B26, the “apparent Kd (screen)” value came out at 2.73 nM.

B27: Y101K (designed binder)
chain: B1 chain with Y101K, T106A
Regarding B27, the “apparent Kd (screen)” value was determined as 0.446 nM.

B28: K27G (designed binder)
chain: B1 chain with K27G, T106A
As for B28, the “apparent Kd (screen)” value is 0.79 nM.

B29: A35K (designed binder)
chain: B1 chain with A35K, T106A
For B29, the “apparent Kd (screen)” value was determined as 0.49 nM.

B30: E44A (designed binder)
chain: B1 chain with E44A, T106A
For the molecule B30, the “apparent Kd (screen)” value is 0.956 nM.

B31: L94Q (designed binder)
chain: B1 chain with L94Q, T106A
In the case of B31, the “apparent Kd (screen)” value was 1.16 nM.

B32: E104L (designed binder)
chain: B1 chain with E104L, T106A
Consider B32, for which the “apparent Kd (screen)” value stood at 0.49 nM.

B33: K93D (designed binder)
chain: B1 chain with K93D, T106A
As to B33, the “apparent Kd (screen)” value stood at 0.446 nM.

B34: A46P (designed binder)
chain: B1 chain with A46P, T106A
As to B34, the “apparent Kd (screen)” value turned out to be 11.4 nM.

B35: E61N (designed binder)
chain: B1 chain with E61N, T106A
Turning to B35, the “apparent Kd (screen)” value came to 1.4 nM.

B36: K52N (designed binder)
chain: B1 chain with K52N, T106A
Turning to B36, the “apparent Kd (screen)” value was 0.869 nM.

B37: A63I (designed binder)
chain: B1 chain with A63I, T106A
For B37, the “apparent Kd (screen)” value is 4.83 nM.

B38: I98M (designed binder)
chain: B1 chain with I98M, T106A
On to B38, for which the “apparent Kd (screen)” value worked out at 5.31 nM.

B39: V74W (designed binder)
chain: B1 chain with V74W, T106A
For the molecule B39, the “apparent Kd (screen)” value was 0.49 nM.

B40: Y13G (designed binder)
chain: B1 chain with Y13G, T106A
Take B40: the “apparent Kd (screen)” value worked out at 2.48 nM.

The values are drawn from publication PMC12416549 (2024).
